Measurements as given in the supplement of paper PMC9170038.

Test system: MS2 coat protein
Experiment: apparent KD of MS2 coat protein; designed switch direction (-1 OFF switch, 1 ON switch): -1; higher = weaker reporter binding
In short: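 Each step of the titration lasted 0.8–1.5 h at the lowest concentration and 10–20 min at the highest. The protein, SNAP-549-labelled MS2 coat protein, went from 0.7 or 1.5 nM doubling to 3 µM over RNA switches transcribed on Illumina chips by stalled E. coli RNA polymerase. Normalised cluster fluorescence was curve-fitted, and the per-design median over clusters is given as apparent KD.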

[1] = Eterna round: R95, input ligand: FMN 200 uM
[2] = Eterna round: R95, input ligand: microRNA oligo, concentration not stated
[3] = Eterna round: R95, input ligand: none
[4] = input ligand: microRNA oligo, concentration not stated

| Sequence | apparent KD of MS2 coat protein (input ligand: FMN 200 uM) [nM] | apparent KD of MS2 coat protein (input ligand: none) [nM] | apparent KD of MS2 coat protein [1] [nM] | apparent KD of MS2 coat protein [2] [nM] | apparent KD of MS2 coat protein [3] [nM] | apparent KD of MS2 coat protein [4] [nM] |
| --- | --- | --- | --- | --- | --- | --- |
| GCUGGACAAGGAUAUACAUGAGGAUCACCCAUGUGAUCAGCAGUCCUCGGACUGCAAUGUAGAAGGUGUCCAGC [E3/1-C2] (Eterna round: R97, puzzle: Exclusion 3) | 38.9 | 198 | – | – | – | – |
| GCUGGAGCAGGAUAUUCAAUAUCACACAUGAGGAUCACCCAUGUCCAGCGAAAGCUGGAGGGAGAAGGGCUCUAGC [Mat - Exclusion 5 - Eli mod - D98] (puzzle: Exclusion 5) | – | – | 17.6 | 60.4 | 76 | – |
| GCUGGUCAAGGAUAUGCAUUCGUGCUUCGGCACGUAAGGUCACAUGAGGAUCACCCAUGUAGAAGGUGACCAGC [E2/6-C1] (Eterna round: R97, puzzle: Exclusion 2) | 31.6 | 20.9 | – | – | – | – |
| GCUGGUCGAGGAUAUGCAUAUACUGGAUACAGUGGAAGGUCACAUGAGGAUCACCCAUGUAGAAGGCGACUAGC [EX2 #37] (Eterna round: R97, puzzle: Exclusion 2) | 558 | 463 | – | – | – | – |
| GCUUCGGCAGGAUAUACAUGAGGAUCACCCAUGUGCUUCGGCUUGAUCAAGUUGAAGUGUAGAAGGGUUGAAGU [-25.5, -22.5 kcal, 26% A, 3 bis, 3 bis] (Eterna round: R97, puzzle: Exclusion 3) | 36.8 | 78.7 | – | – | – | – |
| GCUUGCUUUUUGGUUUUCAACAUGAGGAUCACCCAUGUUCGUCUUGUGCUCGGGCUUGGGCGGUGUCCGGGUUUGGG [A 9%, less GC] (Eterna round: R97, puzzle: Sensor, turn-off variant 1) | 55.8 | 60.6 | – | – | – | – |
| GCUUGGCGAGGAUAUACAUGAGGAUCACCCAUGUGAGAAGAAUAAGUGAGGAAGAAAAGUAGAAGGCGCUGAGG [Mat - Exclusion 3 - Mod of Salish D62] (puzzle: Exclusion 3) | – | – | 56.1 | 30.4 | 37.6 | – |
| GCUUGUAGAGGAUAUACAAGGGCCCACGCGGCGAGAGCCGCACAUGAGGAUCACCCAUGUAGAAGGCUACUAUA [JL-ex2-4.23 ViennaUCT mod] (Eterna round: R97, puzzle: Exclusion 2) | 125 | 363 | – | – | – | – |
| GCUUGUGGGCAAGGAUAUCCUACGUUGUUCUGGUUCGUGUCUGUCACAUGAGGAUCACCCAUGUGGGAGAAGGUGCCUUUGGUG [Design 62] (Eterna round: R96, puzzle: Exclusion NG 2) | 23.2 | 15.6 | – | – | – | 9.2 |
| GGAAAACAUGAGGAUCACCCAUGUAAGGAUAUGCAAAAGGAUAUAGAAGGAAAAUAAAGCAGAAGGUACAAAGG [salish99-ex1_r3_098] (puzzle: Exclusion 1) | – | – | 126 | 23.7 | 127 | – |
| GGAAAGCAAGGAUAUACAAGGAGAAGGAGGAAAGUAAAAGGACAUGAGGAUCACCCAUGUAGAAGGUGCGAGAG [JR_Exclu2_Sub039] (puzzle: Exclusion 2) | – | – | 31.9 | 29 | 43.5 | – |
| GGAAAGUGAGGAUAUGGUAAUUUAAUUAUUAAUUAAUUAAUCCAGAAGGCACAUGAGGAUCACCCAUGUAAAUG [Mat - Exclusion 4 - D91] (puzzle: Exclusion 4) | – | – | – | 30 | – | – |
| GGAAGACAUGAGGAUCACCCAUGUAAGGAUAUCGAAGGUAUGAGAGGAAAGAGGUUAACGAGAAGGUACAGGUG [JR_Exclu1_Sub099] (puzzle: Exclusion 1) | – | – | 107 | 82 | 102 | – |
| GGAAGAGAGAUAGGAUAUUAAAGGAAGAUGGUGAGAGAGACAUGAGGAUCACCCAUGUAAAGGAAUAAGAAGGGUCAGAAGGAA [EXNG2 V2 g] (Eterna round: R96, puzzle: Exclusion NG 2) | 137 | 184 | – | – | – | 104 |
| GGAAGGAGUGUCAGGAUAUCCGGAGGGAAACCUCCGGAGAAGGGACAUGAGGAUCACCCAUGUAGAGGAAGGAG [AK-MS2ROC-r4-Bmoexclusion4-9] (Eterna round: R97, puzzle: Brourd's mod of Exclusion 4) | 561 | 441 | – | – | – | – |
| GGAAUGUAAGGAUAUCCGAAAGGAAGGAGAGGGAGAGGGAAGGAGAAGGUACAUGAGGAUCACCCAUGUAAGGG [AK-MS2ROC-r4-exclusion4-9] (Eterna round: R97, puzzle: Exclusion 4) | 88.5 | 69.2 | – | – | – | – |
